Where two headings read alike, the source gives them in different places. One block for each substance: values may come before it.
Columns and labels:
[1] = biological target: E. coli bo3 oxidase (E. coli) (UniProt P0ABJ3); experiment: SEC-MALS
[2] = biological target: E. coli bo3 oxidase (E. coli) (UniProt P0ABJ3); experiment: mass photometry
[3] = biological target: E. coli outer membrane protein F (OmpF) (E. coli) (UniProt P02931); experiment: native MS
[4] = biological target: E. coli outer membrane protein F (OmpF) (E. coli) (UniProt P02931); experiment: mass photometry
[5] = biological target: KcsA (pT7-KcsA construct, N-terminal His-tag) in native SMA nanodiscs (Streptomyces lividans) (UniProt P0A334); experiment: mass photometry + other: lipid-to-protein ratio
[6] = biological target: potassium channel KcsA from Streptomyces lividans (pET-28a construct, N-terminal His-tag) (Streptomyces lividans) (UniProt P0A334); experiment: mass photometry
[7] = biological target: potassium channel KcsA from Streptomyces lividans (pET-28a construct, N-terminal His-tag) (Streptomyces lividans) (UniProt P0A334); experiment: mass photometry; remark: listed apart in the source

- relative abundance of dimers [1]: 28%
- relative abundance of monomers [1]: 72%
- stoichiometry N [1]: 2
- relative abundance of dimers [2]: 20%
- relative abundance of monomers [2]: 80%
- stoichiometry N [2]: 2
Substance: E. coli bo3 oxidase (from UniProt P0ABJ3 1-204) (complex)

- stoichiometry N [3]: 3
- stoichiometry N [4]: 3
Substance: E. coli outer membrane protein F (OmpF) (from UniProt P02931 23-362) (natural protein)

Substance: KcsA (pT7-KcsA construct, N-terminal His-tag) in native SMA nanodiscs (from UniProt P0A334 1-160) (natural protein)
- stoichiometry N [5]: 8

Substance: potassium channel KcsA from Streptomyces lividans (pET-28a construct, N-terminal His-tag) (from UniProt P0A334 1-160) (natural protein)
- stoichiometry N [6]: 4
- stoichiometry N [7]: 4
